Patent US20160369002A1
pKd: −log10 of the molar value.

Key:
Test in all cases: SPR; set-up for the IgG1 comparator not stated
[1] = target: Human CD16a (human) (UniProt P08637)
[2] = target: Human CD16b (human) (UniProt O75015)
[3] = target: Human CD32a (human) (UniProt P12318)
[4] = target: Human CD32b (human) (UniProt P31994)
[5] = target: Human CD64 (human) (UniProt P12314)
Chain of Human CD64 (human) (P12314 16-288 limits assumed): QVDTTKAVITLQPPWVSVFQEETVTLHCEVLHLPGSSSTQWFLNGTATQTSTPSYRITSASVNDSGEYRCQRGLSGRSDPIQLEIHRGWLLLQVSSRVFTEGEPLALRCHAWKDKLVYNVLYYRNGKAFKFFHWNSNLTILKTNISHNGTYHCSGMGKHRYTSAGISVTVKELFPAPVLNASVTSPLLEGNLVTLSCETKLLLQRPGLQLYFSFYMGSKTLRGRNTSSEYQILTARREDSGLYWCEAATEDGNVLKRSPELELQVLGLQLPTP

Chain of Human CD16a (human) (P08637 17-208 limits assumed): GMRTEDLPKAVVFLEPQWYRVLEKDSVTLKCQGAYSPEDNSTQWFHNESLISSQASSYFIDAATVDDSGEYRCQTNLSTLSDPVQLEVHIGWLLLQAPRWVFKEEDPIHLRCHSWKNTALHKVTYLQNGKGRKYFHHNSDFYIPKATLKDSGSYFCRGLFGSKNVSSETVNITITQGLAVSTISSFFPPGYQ
Chain of Human CD16b (human) (O75015 17-200 limits assumed): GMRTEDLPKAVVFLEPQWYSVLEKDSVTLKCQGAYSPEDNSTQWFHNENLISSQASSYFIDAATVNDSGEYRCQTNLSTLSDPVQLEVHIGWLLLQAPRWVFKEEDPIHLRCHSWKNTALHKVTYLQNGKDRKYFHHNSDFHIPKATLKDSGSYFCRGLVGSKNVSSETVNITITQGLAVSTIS
Chain of Human CD32b (human) (P31994 46-217 limits assumed): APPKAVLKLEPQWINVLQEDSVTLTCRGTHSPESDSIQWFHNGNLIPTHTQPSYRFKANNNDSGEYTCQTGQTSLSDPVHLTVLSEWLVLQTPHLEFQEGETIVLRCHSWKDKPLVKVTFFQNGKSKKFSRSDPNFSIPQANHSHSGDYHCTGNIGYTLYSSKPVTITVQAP
Chain of Human CD32a (human) (P12318 36-218 limits assumed): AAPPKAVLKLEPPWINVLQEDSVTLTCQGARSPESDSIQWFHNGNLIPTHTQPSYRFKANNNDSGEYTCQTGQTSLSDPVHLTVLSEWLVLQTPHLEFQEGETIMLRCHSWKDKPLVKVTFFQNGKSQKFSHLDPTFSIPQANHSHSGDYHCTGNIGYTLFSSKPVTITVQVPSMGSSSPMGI

pKd [1]: 6.20
pKd [2]: 5.62
pKd [3]: 6.42
pKd [4]: 5.93
pKd [5]: 9.62
Substance: Full length human IgG1 antibody
